Assay results published in US20220242939A1 (BIOARCTIC, published 2022).
Non-standard residues stand in square brackets, D forms with d. No end group written: not given here. Ahx = NCCCCCC(=O)O

T1: L198 N-terminal neo-epitope peptide LAGQPLQE-Acp-C (SEQ ID NO:54) conjugated to BSA (human, not fully specified (residue 10); printed as LAGQPLQE-Acp-C; also: C-terminal Cys conjugated to BSA carrier)
T1 construct: BSA carrier
T1 peptide: LAGQPLQE[Ahx]C

T2: L198 N-terminal neo-epitope peptide LAGQPL-Acp-C (SEQ ID NO:52) conjugated to BSA (human, not fully specified (residue 8); printed as LAGQPL-Acp-C; also: C-terminal Cys conjugated to BSA carrier)
T2 construct: BSA carrier; also called L198-BSA peptide
T2 peptide: LAGQPL[Ahx]C

T3: G200 N-terminal neo-epitope peptide GQPLQE-Acp-C (SEQ ID NO:50) conjugated to BSA (human, not fully specified (residue 8); printed as GQPLQE-Acp-C; also: C-terminal Cys conjugated to BSA carrier)
T3 construct: also called G200-BSA peptide; G200-peptide
T3 peptide: GQPLQE[Ahx]C

T4: negative control peptide AATVGSLAGQPLQER-Acp-C (SEQ ID NO:53) conjugated to BSA (human, not fully specified (residue 17); printed as AATVGSLAGQPLQER-Acp-C; also: C-terminal Cys conjugated to BSA carrier)
T4 construct: BSA carrier; also called 192-206 BSA-conjugated peptide
T4 peptide: AATVGSLAGQPLQER[Ahx]C

T5: A199 N-terminal neo-epitope peptide AGQPLQ-Acp-C (SEQ ID NO:51) conjugated to BSA (human, not fully specified (residue 8); printed as AGQPLQ-Acp-C; also: C-terminal Cys conjugated to BSA carrier)
T5 construct: BSA carrier; also called A199-BSA peptide
T5 peptide: AGQPLQ[Ahx]C


Assays:
[1] = target: T6, recombinant C-terminal ApoE fragment L198-HIS (ApoE-L198-H299-10xHIS) (human, UniProt P02649 216-317); experiment: direct ELISA, L198-HIS coated at 0.1 µM
T6 construct: also called L198-HIS fragment
T6 sequence (P02649 other isoform, or with tags, fused parts or gaps limits assumed): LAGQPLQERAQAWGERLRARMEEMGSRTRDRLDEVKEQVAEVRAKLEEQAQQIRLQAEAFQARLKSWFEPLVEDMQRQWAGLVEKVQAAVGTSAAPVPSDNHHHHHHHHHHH
Procedure, shortened: (§1)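 Antigens were coated overnight at 4 °C in PBS, then plates were blocked with protein-free blocker for 1 h. Purified mAbs in 3-fold serial dilutions from 3 μg/ml were bound for 2 h at room temperature, with anti-ApoE C-terminal E-8 as reference. TMB substrate development was stopped with H2SO4 and OD450 was read.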

[2] = target: T1, L198 N-terminal neo-epitope peptide …; experiment: direct ELISA after limiting dilution
[3] = target: T7, His-tagged recombinant full-length ApoE4, 10xHIS-ApoE4(1-299) (human, UniProt P02649 19-317); experiment: direct ELISA
T7 construct: also called ApoE4-FL-HIS
T7 sequence (P02649 other isoform, or with tags, fused parts or gaps limits assumed): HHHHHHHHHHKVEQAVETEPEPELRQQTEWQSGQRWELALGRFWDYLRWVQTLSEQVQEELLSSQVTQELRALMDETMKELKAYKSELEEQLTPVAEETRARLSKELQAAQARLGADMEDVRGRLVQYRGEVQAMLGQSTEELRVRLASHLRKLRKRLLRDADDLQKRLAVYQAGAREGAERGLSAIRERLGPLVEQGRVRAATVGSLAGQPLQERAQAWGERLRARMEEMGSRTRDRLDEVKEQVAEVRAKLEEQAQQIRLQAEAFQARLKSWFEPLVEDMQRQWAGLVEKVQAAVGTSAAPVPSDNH

[4] = target: T8, full-length ApoE in human brain extract from Alzheimer's disease patients (human, UniProt P02649 19-317); experiment: Western blot of AD brain RIPA 2% SDS extract; monoclonal antibody at 2 ug/ml as primary antibody
T8 construct: mature; Endogenous protein on Western blot or in solution (IP); also called ApoE full-length protein
T8 sequence (P02649 19-317): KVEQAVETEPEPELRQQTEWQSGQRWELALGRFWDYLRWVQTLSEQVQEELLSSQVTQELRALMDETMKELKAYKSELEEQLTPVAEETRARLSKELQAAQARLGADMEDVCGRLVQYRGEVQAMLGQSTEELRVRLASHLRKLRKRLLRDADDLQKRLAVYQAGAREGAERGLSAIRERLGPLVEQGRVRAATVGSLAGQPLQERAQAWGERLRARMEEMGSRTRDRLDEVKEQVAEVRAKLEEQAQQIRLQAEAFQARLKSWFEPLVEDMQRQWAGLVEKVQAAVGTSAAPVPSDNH

[5] = target: T2, L198 N-terminal neo-epitope peptide …; experiment: direct ELISA, L198-BSA peptide coated at 1 µg/ml
Procedure, shortened: as §1

[6] = target: T3, G200 N-terminal neo-epitope peptide …; experiment: direct ELISA; proteins coated at 0.1 uM, BSA peptides at 1 ug/ml; antibody in 3-fold dilutions from 3000 ng/ml; blank reduced OD 450 nm
Protocol: (§2) Selectivity evaluation of purified monoclonal antibodies by direct ELISA: The direct ELISA described below was used to evaluate the binding selectivity of the purified monoclonal antibodies produced in Example 14.
(§3) The screening was performed according to standard ELISA protocols. Briefly, 1 μg/ml solutions of BSA-conjugated neo-epitope peptides and negative control peptide, and 0.1 μM recombinant C-terminal ApoE fragment and full-length ApoE (Abcam, cat. no. ab50243) were prepared by dilution in PBS. 50 μl/well were added to an ELISA half-area 96 well microtiter plate, and the plate was sealed with adhesive sealer and incubated over night at 4° C. After discarding the solution, the plates were blocked with 150 μl/well of protein-free blocking solution (Pierce) for 1 h at room temperature with shake (600-900 rpm). The plates were washed four times with washing buffer containing 0.28 mM NaH₂PO₄, 2.5 mM Na₂HPO₄, 150 mM NaCl, 0.1% TWEEN®-20 and 0.0075% Kathon CG. Purified monoclonal antibodies of interest were 3-fold serially diluted with a starting dilution at 3 μg/ml (mixed 1:2 with dilution buffer (PBS with 0.1% BSA and 0.05% TWEEN®-20)). An anti-ApoE C-terminal antibody was used as a reference antibody (ApoE E-8 mouse monoclonal, Santa Cruz Biotechnology, cat. no. sc-393302). 50 μl/well were added into the ELISA plates and incubated for 2 h at room temperature with shake (600-900 rpm). The plates were washed four times as described previously. […] After another wash (as described previously), 50 μl/well of K-Blue® aqueous substrate (Neogen) were added, and the reaction was stopped after 5-15 min with 50 μl/well of 0.5 M […]. The optical density at 450 nm was read using an ELISA reader (Tecan).

[7] = target: T9, recombinant full-length ApoE4 (aa 1-299; SEQ ID NO:45; Abcam cat. no. ab50243) (human, UniProt P02649 19-317); experiment: as above
T9 construct: Bought protein; also called recombinant ApoE4 full-length protein
T9 sequence (P02649 19-317 C130R limits assumed): as the sequence (P02649 19-317) above, with C112R counted along it
Protocol: as §2, §3

[8] = target: T4, negative control peptide …; experiment: as above
Protocol: as §2, §3

[9] = target: T5, A199 N-terminal neo-epitope peptide …; experiment: as above
Protocol: as §2, §3

[10] = target: T3, G200 N-terminal neo-epitope peptide …; experiment: direct ELISA, target coated at 1 ug/ml, supernatant in 3-fold dilutions from 1000 ng/ml, OD 450 nm
Protocol: (§4) Selectivity evaluation by direct ELISA: The direct ELISA described below was used to evaluate the binding selectivity of generated monoclonal anti-ApoE antibodies with affinity for the N-terminal neo-epitope of C-terminal ApoE fragments starting at amino acid G200.
(§5) The screening was performed according to standard ELISA protocols. Briefly, 1 μg/ml solutions of N-terminal neo-epitope peptide (SEQ ID NO:50) conjugated to BSA, the recombinant C-terminal ApoE fragment G200-HIS (SEQ ID NO:48) and recombinant full-length ApoE4 (SEQ ID NO:45; Abcam; cat. no. ab50243) were prepared by dilution in PBS. 50 μl/well were added to an ELISA half-area 96 well microtiter plate. Then, the plate was sealed with adhesive sealer and incubated over night at 4° C. The plates were blocked with 150 μl/well of protein-free blocking solution (Pierce) for 1 h at room temperature with shake (600-900 rpm). The plates were washed four times with washing buffer containing 0.28 mM NaH₂PO₄, 2.5 mM Na₂HPO₄, 150 mM NaCl, 0.1% TWEEN®-20 and 0.0075% Kathon CG. Antibodies of interest were serially diluted 3-fold with a starting dilution at 1 μg/ml (mixed 1:1 with dilution buffer: PBS with 0.1% BSA and 0.05% TWEEN®-20) and incubated for 2 h at room temperature. The plates were washed four times as before. […] After another wash (as above), 50 μl/well of K-Blue® aqueous substrate (Neogen) were added, and the reaction was stopped after 5-15 min with 50 μl/well of 0.5 M […]. The optical density at 450 nm was read using an ELISA reader (Tecan). The optical density was plotted against the antibody concentration to generate concentration-response curves (FIG. 14).

[11] = target: T9, recombinant full-length ApoE4 (aa …); experiment: as above
Protocol: as §4, §5

[12] = target: T10, recombinant C-terminal ApoE fragment G200-HIS (ApoE-G200-H299-10xHIS) (human, UniProt P02649 218-317); experiment: as above
T10 construct: also called G200-HIS fragment
T10 sequence (P02649 other isoform, or with tags, fused parts or gaps limits assumed): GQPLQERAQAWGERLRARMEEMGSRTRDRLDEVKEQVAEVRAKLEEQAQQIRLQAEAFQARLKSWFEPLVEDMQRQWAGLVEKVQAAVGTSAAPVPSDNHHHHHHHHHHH
Protocol: as §4, §5

[13] = target: T8, full-length ApoE in human brain extract …; experiment: Western blot, human AD brain extract, hybridoma supernatant (data not shown for 21C3)
Source text: Selectivity evaluation and human target binding in Alzheimer's disease brain extracts by Western blot analysis: The Western blot analysis described below was used to evaluate selective binding of monoclonal antibodies with affinity for the N-terminal neo-epitope of ApoE fragments […], starting at G200, without binding to ApoE full-length protein, in human brain extracts from an Alzheimer's disease patient. Fresh frozen brain tissue from the Alzheimer's disease patient was homogenized in RIPA 2% SDS extraction buffer, followed by centrifugation at 16000×g for 1 h. The subsequent supernatant was subjected to standard protein concentration determination.
RIPA 2% SDS brain extract containing 80 μg total protein was mixed with 2×Laemmli sample buffer, boiled for 5 min at 95° C. and loaded onto SDS-PAGE gels (Bolt™ 12% Bis-Tris Plus 10 well, Thermo Fisher, cat. no. NW00120BOX). Gels were run for 30-40 min at 180 V, after which proteins were transferred from the gels to nitrocellulose membranes using the Trans-Blot® Turbo™ system (Bio-Rad). Membranes were blocked in Odyssey® blocking buffer for 1 h and incubated over night at room temperature with hybridoma supernatant diluted 1:1 in Odyssey® blocking buffer with 0.1% TWEEN®-20. […]

EC50 [1] [ng/mL]	binding result [2]	binding result [3]	binding result [4]	EC50 [5] [ng/mL]	binding result [6]	binding result [7]	binding result [8]	binding result [9]	EC50 (read off the curve) [10] [ng/mL]	binding result [11]	EC50 (read off the curve) [12] [ng/mL]	binding result [13]	Binder
18.5	binds	no binding (tested: 3 µg/ml)	no binding (tested: 2 ug/ml (text))	13.5	no binding (tested: 3000 ng/ml)	no binding (tested: 3000 ng/ml)	no binding (tested: 3000 ng/ml)	no binding (tested: 3000 ng/ml)	–	–	–	–	6F4, monoclonal anti-L198 antibody (antibody, IgG1, V domains shown) VH: EVNLEESGGDLVQPGRSLKLSCVASGFTFSDYWMNWVRQSPEKGLEWVAQIRLKSDNYVTHYVESLKGRFTISRDDSRSCVYLQMNNLRAEDTGIYYCTGHILLRRRYFDVWGTGTTVTVSS VL: DIVMTQSQKFMSTSVGDRVSVTCEASQNVGTNVAWYQQKPGQSPKGLIYSASYRYSGVPDRFTGSGSGTDFTLTISTVQSEDLAEYFCHQFNTYPYTFGGGTTLEII
–	–	–	–	–	–	–	–	–	~4	no binding (tested: 1000 ng/ml)	~4	no binding	21C3, hybridoma monoclonal antibody (unpurified supernatant) (antibody, V domains shown, same VH and VL as 4E6; not made as recombinant antibody) VH: EVQLVESGGDLVKPGGSLKLSCAASGFTFSSYAMSWVRQSPEKRLEWVAEISGSGSRDHYTDSVTGRFTVSRDNAKNTLYLEMSSLRSEDTAIYYCARQLTGTDYYGTDYWGQGTSVTVSS VL: DVLMTQIPLSLPVSLGDQASISCRSSQSIVYSNGNTYLEWYLQRPGQSPKLLIYKVSNRFSGVPDRFSGSGSGTDFTLKISRVEAEDLGVYYCFQGSHLPYTFGGGTKLEIK
